Measurements as given in paper PMC4072508, “Genome-Wide Prediction and Validation of Peptides That Bind Human Prosurvival Bcl-2 Proteins” (PLoS Computational Biology, 2014).

T1: Mcl-1, Q07820
T1 chain: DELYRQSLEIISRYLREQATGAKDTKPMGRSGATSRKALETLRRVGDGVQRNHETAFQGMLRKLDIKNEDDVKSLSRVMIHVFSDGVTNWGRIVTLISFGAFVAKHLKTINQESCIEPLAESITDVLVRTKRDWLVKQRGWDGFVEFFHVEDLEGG


Key:
Bcl-xL, Q07817 = experiment: peptide SPOT array, c-Myc-tagged receptor at 1 uM or 100 nM, anti-c-Myc-Cy3
Mcl-1, Q07820 = target: T1, Mcl-1, Q07820; experiment: as above

Sequence of Bcl-xL, Q07817 (Q07817 1-209): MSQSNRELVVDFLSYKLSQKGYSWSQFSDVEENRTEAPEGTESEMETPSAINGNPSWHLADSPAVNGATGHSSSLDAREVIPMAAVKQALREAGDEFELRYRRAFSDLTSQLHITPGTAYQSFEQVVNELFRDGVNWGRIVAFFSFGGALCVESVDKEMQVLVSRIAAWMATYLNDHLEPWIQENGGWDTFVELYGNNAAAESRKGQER

Row | Binder | SPOT signal as a fraction of Bim BH3's signal on the same receptor and array (Bcl-xL, Q07817) | SPOT signal as a fraction of Bim BH3's signal on the same receptor and array (Mcl-1, Q07820)
1 | RDPQGWVAGNLSARLDGAAGFTLPGF [MST1R] | 0.02 | 0.02
2 | SVRYYPSGDAFASGSDDATCRLYDLR [GNB5] | 0.02 | 0.02
3 | KLPVVGIGKHDCGMATDLALRCLVET [CCDC76] | 0.01 | 0.01
4 | FRFAQLCGLHDVIHADELEELMCYYQ [CLTCL1] | 0.02 | 0.02
5 | AKFLLYLGHSLSTWGDRMWHFAVSVF [SLC40A1] | 0.1 | 0.07
6 | CALIAGATLHDAWLGDSQVILVQQGQ | 0.02 | 0.01
7 | EKVLIFGGDILKFAGDALLALWRVER [ADCY10] | 0.04 | 0.02
8 | LSPGRSVTAGDIIVGDEILKGHTQDT [FLAD1] | 0.01 | 0.01
9 | QQMHHNAATADAQRADMLRGLSPRES [NCOR2] | 0.02 | 0.01
10 | CALIAGATLHVAWLGDSQVILVQQGQ | 0.02 | 0.01
11 | DEHISYVATKVCHLLDQLEGVNTPRQ [EXOC5] | 0.02 | 0.02
12 | VEQFSEASQQMAELSEVLVLRLENYE | 0.02 | 0.02
13 | PPDAHVLGKALEAALQDFSLDLRSTG [CIITA] | 0.01 | 0.02
14 | LRCEMASTGEVACFLEGIHTAFLKAM [CPS1] | 0.02 | 0.03
15 | CGDLASLSIDDWTLGEEVDGRRLVVA [BIRC6] | 0.02 | 0.02
16 | KNIAGALAFWMANALELLNFIKQDRD [MLLT4] | 0.03 | 0.02

Row | Binder | SPOT signal as a fraction of Bim BH3's signal on the same receptor and array (Bcl-xL, Q07817) | SPOT signal as a fraction of Bim BH3's signal on the same receptor and array (Mcl-1, Q07820)
17 | PSLSKELTSSLAGVLDVSFDSDSQFP [CRTC1] | 0.02 | 0.01
18 | AALFLHAGCQDLTAGEDGKVQVWSGS [TEP1] | 0.02 | 0.02
19 | RLAHEHHCLRIKILGDCYYCVSGLPE [ADCY8] | 0.03 | 0.02
20 | IVGGCVVGIAMARFADFIRGMLKLIL [DIRC2] | 0.25 | 0.18
21 | VEQFSEASQQDAELSEVLVLRLENYE | 0.02 | 0.02
22 | ALKKADVGFAMGIALTDVAKEASDII [ATP2B1] | 0.02 | 0.01
23 | SALETQVAAAVQALLDDYLAQLSLEP [TRO] | 0.02 | 0.02
24 | AFTEREASEIDKSIGEAIQYLHSINI [MAPKAPK2] | 0.02 | 0.02
25 | GLFSATSGVDLKYVLDTFGQEVRPVS [DDX7] | 0.02 | 0.02
26 | SHALICISHWDLGIGDRHLNNFMVAM [PRKDC] | 0.02 | 0.02
27 | ITVVGDVGGRIAIIVDDIIDDVESFV [PRPSAP1] | 0.02 | 0.02
28 | ISDVQVFGYSDRFNADLLRSAVQQVN [DBC1] | 0.02 | 0.02
29 | SAGVPVRGVELQAALERFARCFGRTD [TIGD7] | 0.04 | 0.05
30 | VILADPDGHEICFVLDEAFRELSKMD [GLOD4] | 0.02 | 0.02
31 | GKPETCTGQDDADLGDRLRDWFQLLH [SPOCK2] | 0.01 | 0.01
